# Tests used:
# [1] = biological target: Clostridium difficile toxin A (purified) (Clostridium difficile) (UniProt P16154)
# [2] = biological target: Clostridium difficile toxin A (purified) (Clostridium difficile) (UniProt P16154); test: cell-based or functional assay
# Actoxumab IgA2m1, sequence (heavy, form in doubt): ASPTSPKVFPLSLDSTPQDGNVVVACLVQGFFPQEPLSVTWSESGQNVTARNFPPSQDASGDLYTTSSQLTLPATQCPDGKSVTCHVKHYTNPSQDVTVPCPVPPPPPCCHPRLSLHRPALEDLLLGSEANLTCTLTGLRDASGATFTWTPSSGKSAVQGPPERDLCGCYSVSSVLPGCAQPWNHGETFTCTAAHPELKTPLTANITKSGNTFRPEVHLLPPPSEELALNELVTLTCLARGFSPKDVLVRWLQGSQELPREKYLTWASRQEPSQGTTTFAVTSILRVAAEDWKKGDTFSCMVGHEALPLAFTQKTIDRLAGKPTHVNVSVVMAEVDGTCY
# Actoxumab IgA2m1, sequence (P01591 whole entry, form in doubt): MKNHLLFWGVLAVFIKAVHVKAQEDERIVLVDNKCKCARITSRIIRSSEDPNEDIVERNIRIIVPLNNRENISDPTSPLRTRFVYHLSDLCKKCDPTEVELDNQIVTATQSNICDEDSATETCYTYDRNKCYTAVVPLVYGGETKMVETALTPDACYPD
substance,measurement,setting,value
Actoxumab IgA2m1 (antibody),"IC50 (read off the curve); % neutralization of Toxin A on Vero cells (alamarBlue), curve 'Actoxumab IgA2m1 Protein'",[1],0.03 µg/mL
same,"IC50 (read off the curve); % neutralization of Toxin A on Vero cells (alamarBlue), curve 'Actoxumab IgA2m1 mRNA'",[1],0.01 µg/mL
same,potency (IC50) of Toxin A neutralization on Vero cells relative to Actoxumab IgG; antibody from mRNA-transfected cell supernatant,[2],200 fold
same,potency (IC50) of Toxin A neutralization on Vero cells relative to Actoxumab IgG; recombinant antibody protein,[2],200 fold
